Results published in patent US20240409647A1, “BISPECIFIC BINDING PROTEINS AGAINST ALARMINS AND USES THEREOF” (SINOMAB BIOSCIENCE LIMITED, priority 2022, published 2024).
Values joined by “and” are separate entries in the source; they are usually repeats but may differ in a detail not shown here. Equal entries are not always repeated.

Assays:
IL-17RB = target: T1, IL-17RB (Homo sapiens, UniProt Q9NRM6); assay: ELISA, SM17 binding to coated IL-17RB protein (human); conditions: two wells
T1 construct: purchased R&D systems
T1 sequence (Q9NRM6 18-502): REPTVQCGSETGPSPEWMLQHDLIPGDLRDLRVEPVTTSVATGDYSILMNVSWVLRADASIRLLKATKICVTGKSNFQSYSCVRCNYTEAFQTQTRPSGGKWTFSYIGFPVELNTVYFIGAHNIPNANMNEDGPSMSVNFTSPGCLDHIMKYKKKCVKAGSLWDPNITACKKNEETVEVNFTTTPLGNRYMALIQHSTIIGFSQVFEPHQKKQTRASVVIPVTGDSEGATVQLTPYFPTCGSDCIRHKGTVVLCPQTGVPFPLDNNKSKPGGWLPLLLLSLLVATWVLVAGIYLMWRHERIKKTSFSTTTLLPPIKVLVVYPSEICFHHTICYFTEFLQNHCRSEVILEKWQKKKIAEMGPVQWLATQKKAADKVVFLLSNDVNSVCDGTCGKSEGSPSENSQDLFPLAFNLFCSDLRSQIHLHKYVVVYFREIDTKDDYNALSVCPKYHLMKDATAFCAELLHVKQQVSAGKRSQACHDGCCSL
Method: A standard enzyme-linked immunosorbent assay (ELISA) method was used to determine the species specificity of SM17 against IL-17RB proteins. Briefly, IL-17RB proteins from human, mouse, cynomolgus or rhesus monkey (R&D systems, Minneapolis, MN) were diluted to 2.5 μg/ml in PBS and 50 μl of IL-17RB proteins were added to each well of ELISA strip. The strips were sealed with parafilm and incubated at 4° C. overnight for coating.
On the next day, strips were washed thrice with washing buffer (0.05% Tween 20 in PBS) and blocked with 100 μl per well with blocking buffer (3% BSA in PBS) for 2 hours RT before serially diluted SM17 (at a final concentration of 10, 2, 0.4, 0.08, 0.016, 0.0032, and 0.00064 μg/ml, respectively) was added.

[1] = target: T2, rhesus monkey IL17RB expressed on HEK293 cells (Macaca mulatta, UniProt H9FWT9); assay: Flow cytometry, SM17 binding to HEK293 transfected with rhesus monkey IL-17RB; conditions: SM17 1 μg/ml
T2 construct: transfected either with full-length human or rhesus monkey IL-17RB (SinoBiological, Beijing, China); host or cells: HEK293
T2 sequence (H9FWT9 18-502): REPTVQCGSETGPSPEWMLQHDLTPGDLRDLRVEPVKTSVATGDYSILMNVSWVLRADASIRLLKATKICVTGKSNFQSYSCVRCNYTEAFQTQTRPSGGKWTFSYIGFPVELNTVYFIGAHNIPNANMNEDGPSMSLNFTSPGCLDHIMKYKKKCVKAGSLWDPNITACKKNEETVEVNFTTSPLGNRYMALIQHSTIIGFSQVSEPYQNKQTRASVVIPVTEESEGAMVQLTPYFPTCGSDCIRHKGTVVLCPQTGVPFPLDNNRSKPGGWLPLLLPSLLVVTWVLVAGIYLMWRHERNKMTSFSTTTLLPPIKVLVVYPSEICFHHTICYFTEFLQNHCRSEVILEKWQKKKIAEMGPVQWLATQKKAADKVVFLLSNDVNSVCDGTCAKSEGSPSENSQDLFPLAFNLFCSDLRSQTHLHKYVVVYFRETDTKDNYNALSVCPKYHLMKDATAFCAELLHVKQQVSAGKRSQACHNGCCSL
Method: HEK293 cells (ATCC, Manassas, VA) transfected either with full-length human or rhesus monkey IL-17RB (SinoBiological, Beijing, China) were examined for binding to SM17 following standard protocol for flow cytometry. Wild-type HEK293 stained with IgG4 isotype control (Sino Biological) was used as the negative control and for gating purpose. Briefly, HEK293 cells at a density of 3×10^5 cells were seeded into each well of a 6-well plate. On the next day, human or rhesus Il-17RB full length cDNA were first cloned into pCMV3-untagged expression plasmid through standard molecular cloning technique, and then expression plasmids for human or rhesus IL-17RB were transfected into HEK293 cells by lipofection (Lipofectamine 3000 reagent; Thermo Fisher Scientific). Transfected cells were trypsinized, harvested, and fixed with 4% paraformaldehyde (5 minutes). SM17, or human IgG4 control at 1 μg/ml in washing buffer (3% BSA in PBS) were added to the resuspend cells for incubation at RT for 30 min before Alexa Fluor® 647-conjugated goat anti-human IgG specific antibody (1:2000 dilution in washing buffer) (Jackson ImmunoResearch) was added for flow cytometry analysis using the BD FACSVerse cell analyzer (Becton Dickenson, Franklin Lakes, NJ).

Human PBMCs [2] = assay: CCL17 release from human PBMC incubated with TSLP; format: cell-based; set-up: key to Intensity of specific cytokine inhibition, CCL-17: −: no inhibition; +: weak; ++: moderate; +++: strong inhibition
Method: (§1) Human PBMCs (4×10^5 per group, Ixcells) were incubated with IL-2 (10 unit/mL, PeproTech) and various alarmin/alarmin combinations to mimic the pro-inflammatory cytokines release during allergic diseases. For IL-5 and IL-13 releases, PBMCs were incubated with IL-2 and three alarmins (all 10 ng/ml) for three days. For CCL17 release, PBMC was incubated with TSLP (10 ng/ml) for 1 day. For CCL8 and IFNγ releases, PBMCs were incubated with IL-12 (10 ng/ml, Sino Biological) and IL-33 (10 ng/ml) for 1 day. Cells were pretreated with SM17 (5 μg/ml) or IgG4 isotype control (5 μg/ml) for an hour before the addition of cytokines.
(§2) Supernatants were collected and the cytokine concentration were measured by ELISA kits (R&D systems). These established assays were used to test the potency of and SM17 and bsBps. […] Results were expressed in absolute amount in pg/ml.
(§3) SM17, three different SM17-anti-IL33 bsBps and three different SM17-anti-TSLP bsBps (all at 5 μg/ml) were added to human PBMC cultures under conditions that shall induce the release of IFNγ, CCL8, CCL17 and IL-5 as described in Example 11 above. The levels of different cytokines and chemotactic factors in supernatant obtained in induced PBMC were evaluated using standard ELISA methods.

Human PBMCs [3] = assay: CCL8 and IFNγ release from human PBMC incubated with IL-12 and IL-33; format: cell-based; set-up: key to Intensity of specific cytokine inhibition, IFNγ / Intensity of specific cytokine inhibition, CCL-8: −: no inhibition; +: weak; ++: moderate; +++: strong inhibition
Method: as §1, §2, §3

[4] = SM17 5 μg/ml, IL-12 and IL-33 10 ng/ml, 1 day, vs IgG4 isotype control

SM17: humanized anti-IL17RB monoclonal antibody, human IgG4 isotype; HC SEQ ID NO: 32, LC SEQ ID NO: 33
OD 450 nm Absorption, human IL17RB (IL-17RB; SM17 0.016 μg/mL): 0.17 | OD 450 nm Absorption, human IL17RB (IL-17RB; SM17 0.08 μg/mL): 0.58 and 0.44 | OD 450 nm Absorption, human IL17RB (IL-17RB; SM17 0.4 μg/mL): 1.10 and 1.14 | OD 450 nm Absorption, human IL17RB (IL-17RB; SM17 2 μg/mL): 1.74 and 1.61 | OD 450 nm Absorption, human IL17RB (IL-17RB; SM17 10 μg/mL): 1.82 and 1.88 | binding of SM17 to RhIL17RB-HEK293 [1]: 39% | Intensity of specific cytokine inhibition, CCL-17 (Human PBMCs [2]; 5 μg/ml, human PBMC): − | CCL17 release (in words) (Human PBMCs [2]; SM17 5 μg/ml, TSLP 10 ng/ml, 1 day, vs IgG4 isotype control): no inhibitory effects | Intensity of specific cytokine inhibition, CCL-8 (Human PBMCs [3]; 5 μg/ml, human PBMC): − | Intensity of specific cytokine inhibition, IFNγ (Human PBMCs [3]; 5 μg/ml, human PBMC): − | CCL8 release (in words) (Human PBMCs [3]; [4]): no inhibitory effects | IFNγ release (in words) (Human PBMCs [3]; [4]): no inhibitory effects
